According to patent US20130261012A1:

Target: T1, FN14 on transiently transfected 293-F cells (human) (UniProt Q9NP84)
T1 sequence (looked up): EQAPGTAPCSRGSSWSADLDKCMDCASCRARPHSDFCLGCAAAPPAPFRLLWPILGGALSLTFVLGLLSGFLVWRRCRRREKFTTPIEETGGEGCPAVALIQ
Assay: apparent affinity of the recombinant chimeric mAb, saturation binding

- Kd: 0.26 nM
B1: anti-FN14 mAb FS24 (after 7 additional selections, recombinant chimeric mAb) (antibody, from another filing, V domains shown)
VH: AVTLDESGGGLQTPGGALSLVCKASGFTFSSYDMAWVRQEPGKGLEWVAGIDYDGSGRRYAPAVKGRATISRDNGQSTLRLQLNNLRAEDTGTYYCTKCGYTGGCDYEGGYIDAWGHGTEVIVSS
VL: ALTQPSSVSANPGETVKITCSGGGSSYYAGSYYYGWYQQKAPGSAPVTLIYYNNKRPSDIPSRFSGSLSGSTNTLTITGVRADDEAVYFCGSIDNSGAAFGAGTTLTVLG
